Patent US12528870B2, “Anti-c-Met antibody-drug conjugate and applications thereof” (REMEGEN CO., LTD., priority 2020, dated 2026)
Read-outs that look alike come from different tables or passages of the source.

Legend:
c-Met-positive NSCLC = details: cited from earlier work
[1] = test system: advanced solid tumors / NSCLC; details: cited from earlier work
c-Met protein = c-Met protein (Homo sapiens, UniProt P08581); test: ELISA binding ability to c-Met antigen; details: c-Met protein coated at 2 μg/ml
Method: The c-Met protein was prepared with a diluent to a final concentration of 2 μg/ml, and added to a microplate at 100 μl per well, overnight at 4° C. The solution in the well was discarded, and the plate was washed three times with PBST. The plate was added with a blocking solution at 300 μl/well and incubated at 37° C. for 2 h. The solution in the well was discarded, and the plate was washed three times with PBST. AAJ8D6 antibody and ABT-700 (i.e., telisotuzumab, its sequence information can be found at https://extranet.who.int/soinn/mod/page/view.php?id=137&inn n=10366, the same below) were diluted to 9 concentrations, added to the 96-well plate and incubated for 2 h. The solution in the well was discarded, and the plate was washed three times with PBST. HRP detection antibody was prepared by adding diluent at a dilution of 1:5000, added at 100 μl per well, and incubated at 37° C. for 1 h. The solution in the well was discarded, and the plate was washed three times with PB ST. The plate was added with TMB color developing solution, incubated at room temperature for 2 min, and then added with Elisa stop solution.

[2] = combined administration group (with erlotinib)
[3] = single administration cohort, c-Met-positive NSCLC

c-Met protein, sequence (P08581 25-1390): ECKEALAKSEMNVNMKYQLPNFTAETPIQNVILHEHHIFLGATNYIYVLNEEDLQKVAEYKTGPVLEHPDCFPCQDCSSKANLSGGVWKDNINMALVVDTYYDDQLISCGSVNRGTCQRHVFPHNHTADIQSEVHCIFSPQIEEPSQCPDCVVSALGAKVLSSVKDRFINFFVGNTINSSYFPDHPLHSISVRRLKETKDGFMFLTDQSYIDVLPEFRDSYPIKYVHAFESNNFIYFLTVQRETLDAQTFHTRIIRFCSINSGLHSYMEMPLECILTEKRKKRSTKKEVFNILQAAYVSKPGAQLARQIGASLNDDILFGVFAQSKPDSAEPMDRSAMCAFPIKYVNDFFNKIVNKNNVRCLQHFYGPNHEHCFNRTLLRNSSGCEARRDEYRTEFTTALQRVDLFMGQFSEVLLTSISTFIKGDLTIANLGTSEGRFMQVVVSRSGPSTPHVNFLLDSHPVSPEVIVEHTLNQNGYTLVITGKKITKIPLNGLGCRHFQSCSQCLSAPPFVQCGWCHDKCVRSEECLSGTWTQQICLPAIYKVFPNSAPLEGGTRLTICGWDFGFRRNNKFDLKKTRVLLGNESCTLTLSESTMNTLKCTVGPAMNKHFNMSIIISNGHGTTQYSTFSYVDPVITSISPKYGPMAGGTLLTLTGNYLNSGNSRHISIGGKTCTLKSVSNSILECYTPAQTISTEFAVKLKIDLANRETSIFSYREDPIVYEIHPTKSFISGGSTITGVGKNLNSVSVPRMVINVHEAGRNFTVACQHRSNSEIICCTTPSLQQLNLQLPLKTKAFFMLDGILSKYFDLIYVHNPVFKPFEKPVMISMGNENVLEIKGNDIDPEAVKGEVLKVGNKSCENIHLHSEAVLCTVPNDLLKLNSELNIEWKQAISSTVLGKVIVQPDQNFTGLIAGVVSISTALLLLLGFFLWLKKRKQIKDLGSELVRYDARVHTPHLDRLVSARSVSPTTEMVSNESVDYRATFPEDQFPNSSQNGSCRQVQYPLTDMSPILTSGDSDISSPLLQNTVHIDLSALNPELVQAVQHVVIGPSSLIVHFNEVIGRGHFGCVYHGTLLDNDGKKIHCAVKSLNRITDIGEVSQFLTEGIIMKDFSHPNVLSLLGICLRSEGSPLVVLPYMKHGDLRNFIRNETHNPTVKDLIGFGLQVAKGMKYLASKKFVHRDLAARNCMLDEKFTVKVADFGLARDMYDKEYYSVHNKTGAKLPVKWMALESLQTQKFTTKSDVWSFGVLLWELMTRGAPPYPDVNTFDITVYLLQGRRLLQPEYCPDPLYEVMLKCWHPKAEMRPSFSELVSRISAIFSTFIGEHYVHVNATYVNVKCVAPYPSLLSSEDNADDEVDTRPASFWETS

Row | Substance | dose at which well tolerated (c-Met-positive NSCLC; NSCLC patients) | patients with partial remission (c-Met-positive NSCLC; combined administration group (with erlotinib), 1 remains to be confirmed) | patients under control (c-Met-positive NSCLC; combined administration group (with erlotinib), after 12 weeks of treatment) | adverse reaction: nausea, patients (c-Met-positive NSCLC; [2]) | adverse reaction: neuralgia, patients (c-Met-positive NSCLC; [2]) | adverse reaction: fatigue, patients (c-Met-positive NSCLC; [3]) | adverse reaction: nausea (first listed), patients (c-Met-positive NSCLC; [3]) | adverse reaction: nausea (listed a second time), patients (c-Met-positive NSCLC; [3]) | treatment-related deaths (c-Met-positive NSCLC; single administration group and combined administration group) | patients under control (c-Met-positive NSCLC; single administration group, after 12 weeks of administration) | patients who experienced partial remission (c-Met-positive NSCLC; single administration group) | patients who experienced partial remission ([1]; NSCLC patients with H-score ≥150) | tolerated dose ([1]; every three weeks) | most frequently occurring toxicity: decreased appetite ([1]; in vivo) | most frequently occurring toxicity: diarrhea ([1]; in vivo) | most frequently occurring toxicity: vomiting ([1]; in vivo) | EC50 (c-Met protein)
1 | ABBV-399 | 2.7 mg/kg | 4/13 | 76.9% | 23.1% | 46.2% | 43.8% | 37.5% | 18.8% | no treatment-related deaths | 56.3% | 3/16 | about 19% | 2.7 mg/kg | 13% | 10% | 13% | 
2 | ABT-700: competitor anti-c-Met antibody, i.e. telisotuzumab |  |  |  |  |  |  |  |  |  |  |  |  |  |  |  |  | 1.33 ng/mL
